These results are taken from publication PMC4914093 (Nucleic Acids Research, 2016).

The assay addresses T1, Rev1 C-terminal domain (876–985) of the Rad5–Rev1 fusion protein (S. cerevisiae, UniProt P12689 876-985).
T1 sequence (looked up): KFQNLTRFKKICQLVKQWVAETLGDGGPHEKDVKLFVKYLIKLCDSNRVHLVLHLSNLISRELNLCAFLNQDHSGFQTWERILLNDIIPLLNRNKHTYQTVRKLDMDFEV
In words: crystal structure.

B1: Rad5 peptide (5–20) of the Rad5–Rev1 fusion protein (peptide, UniProt P32849 5-20, looked up)
chain: EQEERKRFFNDDLDTS
In the case of B1, the binding result is reported as “binds”.
